This data set in a line: soluble on expression in E. coli; label from the status in PepcDB or PDB records.
On to “MAHHHHHHMLVFRRNFSRFINNNTPKRGVRKVLHKNVTQYGKYTPNSNIVNQQNDNNKLVRGGGGLLSTFYESFIYGCGFFLSNRLLDQIFGPRTYDSFSNNMDYSNENSGGQAPDNYNSYPSENLNNNDPTINDNDFQQDIGLDDDTFDF”, for which the “soluble on expression in E. coli” value was “not soluble”. As for “MPGLEKTRIVDPILTNVAIGYKNAEYVGESLFPVVPVDKEQGKIPKWGAEAFRIYNTRRQIRSKTNRIEMDATTVPYSLEEEALEAPIDDRELEEAAEVLKLEMSRTKMLTDNIRLKMEKDQADVAQNVANYSPGHVEALSGTDKFSDPASKPIDVIGDARATVRSKIGIYPNVLLMGASVYEVLKNHSAIIDKIKYSQKGIATPTCSQKSST”, the “soluble on expression in E. coli” value is on record as “not soluble”. With “MMEMITIKPGKITVQANPNMPKEVAELFRKQHYEIVGRHSGVKLCHWLKKSLTEGRFCYKQKFYGIHSHRCLQMTPVLAWCTHNCIFCWRPMENFLGTELPQPWDDPAFIVEESIKAQRKLLIGYKGNPKVDKKKFEEAWNPTHAAISLSGEPMLYPYMGDLVEEFHKRGFTTFIVTNGTIPERLEEMIKEDKLPTQLYVSITAPDIETYNSVNIPMIPDGWERILRFLELMRDLPTRTVVRLTLVKGENMHSPEKYAKLILKARPMFVEAKAYMFVGYSRNRLTINNMPSHQDIREFAEALVKHLPGYHIEDEYEPSRVVLIMRDDVDPQGTGVEGRFIKH”, the “soluble on expression in E. coli” value is given as “soluble”.

For the sequence “STFRERLLHKNLQEHFSNQDLVFLLLTPSIITESCSTHRLEHSLYKPQKGLFHRVPLVVANLGMSEQLGYKTVSGSCMSTGFSRAVQTHSSKFFEEDGSLKEVHKINEMYASLQEELKSICKKVEDSEQAVDKLVKDVNRLKREIEKRRGAQIQAAREKNIQKDPQENIFLCQALRTFFPNSEFLHSCVMSLKNRHVSKSSCNYNHHLDVVDNLTLMVEHTDIPEASPASTPQIIKHKALDLDDRWQFKRSRLLDTQDKRSKADTGSSNQDKASKMSSPETDEEIEKMKGFGEYSRSPTF”, the “soluble on expression in E. coli” value is listed as “not soluble”. As for “MSSMVEVEHWNTLRLRIYIGENDKWEGRPLYKVIVEKLREMGIAGATVYRGIYGFGKKSRVHSSDVIRLSTDLPIIVEVVDRGHNIEKVVNVIKPMIKDGMITVEPTIVLWVGTQEEIKKFEEDAIAERQ”, the “soluble on expression in E. coli” value is reported as “soluble”.

On to “MGSDKIHHHHHHMLFNTRPKEDRKDLYDREKEIEMIKDSIARGEWIAVLGMRRIGKTSVVNVAVKEIGAIKVSINLMRIHDSRKKQYPKHVLISLLIEEINEAIKNYTILGKVAKLLSNILGVEEIQTNKVRAKLTKIRGTDITYIIREMDSIARDNKKQLVIILDEAQELAKVNGLDFPSIFHDVYDNCKNTVIIFTGSMVKLIEKTLKNIEYTEPFFGRYIRKITLGRFLPEQSREFLEKGFEEEGIKVDESVIDEAVKRLDGIPGWLTLFGSEYTFSAKMGTKPRIDEIIEKAINEVRNEARNFIFSTQSPLRYSAVILALDRLGGKGELHEIVKVSSTILNENIPEPRVYEILNRLVEFDFIERREDNEYYLHQDEPNRKGLILAAKDSPASYSI”, for which the “soluble on expression in E. coli” value is “not soluble”. With “MAHHHHHHMSSSAEEKEAKKQEELRLAGSDSEGVRAAVKAQRELKKKRDALRKVQKKIRSGGSDAEVAAAIEQEAALLAEIGHLEALRGASSAPSTAHVAAASFTSTPATAAASPGALVTVATNKSSGAKAARSGEPAKEITAEERAASAKRLHDLVQGAMDANRLKCLHVLPRDAVVHPRIAEVAVLMEQMLLVGGSARALALISAFRELSRTTTVLAVPSLNEVNTTAFEKLIQINFDFVRRKREASAGMRHVKDVLVRRFVALRDEVIHPKPNMVDLIKDLGGPREVTLKILDAIEAELKMSFKSIVEDRSLPYVSSSDTILVFGRSSLVEYILLSRSRDPQCKPKRVIVIDSAPLFEGRQLAEKLSSAGIDVTYGLITACCTLMPKCTRVFMGASAVLQNGDMFGRCGMALVAACAKLFRKPVLCFSESYKFVPEVWVGNLAQNTKLADMRPAAEVHGSDTGTHSPLVYPTPPTLSPPQLRASGGWGTPARGADFLTRSGGGGAVPFSSSASGYLYDLTPASYIDMIICEMGCLHTSAIVAAIKDREGRDTSQLLNLVRG”, the “soluble on expression in E. coli” value is given as “soluble”.

Consider “MGSDKIHHHHHHMNIIKSFNSTIDYLETVLDDEIDEKKVTRISGYSYSMFSRLFSILTEMTLSEYLRSRRLTEAAIILRDTDEKIIDVAFKFGYESSDSFGTAFKNFHGFTPSEVRIGKPFKLVSRVQLALSVRGGRSMNIRIQKKKAFTVAGVNQQNINSSICASLWQKLFSKVSHEEMLNLGTGEVVGVCHDILSLDNHDVLDSNTINYMAGYIVTDVDKARSMGLDILEIGETEYAVVELTGSVPECIHNGWKYAMEVFFPEHGYVHSGKPDFEYYYEGDMYSKDYKMELWIPVCKS”, for which the “soluble on expression in E. coli” value is reported as “not soluble”. Regarding “MGSDKIHHHHHHMRVCAEHHVINTATGPMGTRVYRPAGPGSYPAILFYSEIFQETAPISRMATVLAGHGFVVLVPEIFHELNPAGTVLGYDDMGKDKGNSDKATKPLESHDSDTAAMVDFVRRQPWCQGKIGAMGVCIGGHLAYRAAVNPDVAAAFCLYATDIHSGTIPSQPGNDSLSRTRDIRGELYMVFGKQDPHVPGEGRRLIQHNLEQHGVNHSWLEVNAEHAFMRDGDARHDPALALVMYQSAIALFQRTL”, the “soluble on expression in E. coli” value is reported as “not soluble”. Turning to “MGSDKIHHHHHHMAPEDWLRAQMQGEIVALVHSHPGGLPWLSEADRRLQVQSDLPWWLVCRGTIHKFRCVPHLTGRRFEHGVTDCYTLFRDAYHLAGIEMPDFHRGDDWWRHGQNLYLDNLEATGLYQVPLSSAQPGDVLLCCFGSSVPNHAAIYCGDGELLHHIPEQLSKRERYTDKWQRRTHSLWRHREWHASAFTGICNDLAAASTFV”, the “soluble on expression in E. coli” value is on record as “not soluble”. In the case of “MGSDKIHHHHHHMLANLNQAMDYIEEHLTEEVSFDELAKKTGISVYHFKRTFSFITGMSLAEYIKKRPLAEANLALLAGEKVTDVAFKYGYQSIEGFSRAFRDWSGQAPSEVMKTQIQKTFPKFSFYIDIKGGQSMDVKLIEKPAFQIVGVSQKVPLQYQGENQAIMELAQRITPQQRAEMHTFDDIYPHQVVNASFDFQEGRTTEGGEMTHMIGFATSQENTYEDLEQLSVPAHTWAVFPNEGPFPQTLQETWAKIFSEWLPSSGYQVVAAPEISFTQYQGPAEAKYSEIWLAVTATK” it was “not soluble”; in that of “MSLDKRYIIAEIKVSIVKTQSAGADYTDHAAGHWINDTIIANPMSVYNDFQHSRSAWGMDVLKGIFIEVTTESGHQGYATAYGGYISSWIIKNHLNRFLIGADARNLSKLYDQMYRASIPYSGQNGVVINTIAGIDLALWDLIGKVRQEPVYMMIGGKVREKLQTYVTGPEAKLAQDWGHVGSKIPLPYGPGDGIVGLKKNQEYIMETRKQVGSDYRLMVDCYMSLDVPYAIDLANAVKEANLYWIEEALPPHDLESHKHIKDACPWQKWTTGEHTNSRYGFRNLIRDRSVDILQPDLTLCGMTETLRIAAMASAYDITVIPHCSGVYAYNFGIASTLTPFNEFINLHPKATEVVPIFGKMFTNEPVPIKGEVTLTDLPGFGAELNKEVELEEIEGHHHHHH”, “soluble”; in that of “PDVKFLEGRYCSVEHIDARKHLNDIIDFYWKNAVPSDWTYMFDQPFETAEAVQERLQDYEKSENPYFFAIRDKETDKVLGTFSLMRIDPKNRVLEMGRVIYAPALQKTSAATEAQYLVMNYVFENLGYRRYEWKCDHLNQSSGNAAKRLGFTYEGTFRKHVVYKGRTRDTDWFSVIDQDWPKLKKRFENWLSPKNF”, “not soluble”. As for “MSLKIGKIVSVNFNQFRVKISSEIRGNSVNLAGTVYYFGNIGSYLKTTNSVGEQLICEVMSIFDSDTKLDSAAYDFDSNRELLLKPIGTITRDDRFNLGVGIFPGIYSEVNVVTFEDMELILQTGKDKELSKAIHQSFFLGESKNLINYPIDISINSFFNIHSAVLGNSGSGKSNTIAHIIQEIHKKKNNSAIGSRILIFDVNGEYKNAFTGHEISPYIKVRLLKPNIEATEDGVEPFYLPHFLMNIDEWSSFLMATDATQRPFWDKVLQESYKFYMIATHEGDDRQKLINYLRFKICNLIHILQAQGDSDTAIITTAQGILYGILTLIEMDDDLQRACQQEGVLQDLHDLNASEGHHHHHH”, the entry is “not soluble”; as for “MGSDKIHHHHHHACVATAFSQTIEKENKIDVQKKNSSAEVSGRQLPEAKNIEPKLPDIEAKKLATDDKSMQTYGLTPSSPASGLSPYSYDFPALLESNPTLTDFYNFRQHSMNGQLSFIGSAEQKTYLGLGQYVAVNAGIRWIPSQRFFVEAGGDLSRQFYLALPIARQDIAGIYTRMRYSLVRNVRLNVWGQYFMGGNTPPPAYNPLFPHTGVGASISVDVKKNTEVSVGAEYQYDKKSREWKMETSGRVSIGF”, “not soluble”; as for “MKIIVQKFGGTSVKDDKGRKLALGHIKEAISEGYKVVVVVSAMGRKGDPYATDSLLGLLYGDQSAISPREQDLLLSCGETISSVVFTSMLLDNGVKAAALTGAQAGFLTNDQHTNAKIIEMKPERLFSVLANHDAVVVAGFQGATEKGDTTTIGRGGSDTSAAALGAAVDAEYIDIFTDVEGVMTADPRVVENAKPLPVVTYTEICNLAYQGAKVISPRAVEIAMQAKVPIRVRSTYSNDKGTLVTSHHSSKVGSDVFERLITGIAHVKDVTQFKVPAKIGQYNVQTEVFKAMANAGISVDFFNITPSEIVYTVAGNKTETAQRILMDMGYDPMVTRNCAKVSAVGAGIMGVPGVTSKIVSALSEKEIPILQSADSHTTIWVLVHEADMVPAVNALHEEFELSK”, “soluble”. As for “MSLKNNEKLIKWLFDTNAIRVCPKDKPFWYTSGTIGPYYINTHFLYGSEEKANKLLEFIDKEKENILKCPDRILEETMKNYQSDPIYRGLIDEMCDFIKNNIDVNEVDYISGGERRDWFFSPIIAKLLNKPHITIYKDLTTVVSSDGKTEELKELNGESVLHIADLITEASSYERAWIPAIKNNGGRIKWSVVVVDRKQGGAELLKSYDIKSFSMVDIDEGHHHHHH”, the “soluble on expression in E. coli” value is “soluble”. Turning to “SKMARASASASLIDGKIYVFGGCPEDADSSNWAEVFDPVYQTWGIFNTPKMAHSINQSVVIEEKKVYAVDEEDQSFSFLPSEGRIWKSGKKDSKVGSRHDWCVIGKLLYCRATRGRILWCQPDELDWKEVKGLEQLQLYLSGTRYIFRRTSDKRPSKTNVKYDIRKISSNSAGNIVIFGNAHIGDPECVELWSAEISMERREGGEIWGKIEWSNVVFKLDPLSNSYSVDVLFSASVHL”, the “soluble on expression in E. coli” value is listed as “soluble”. With “EEQPRLFELLGQPGYKATWHAMFKGESDVPKWVSDASGPSSPSTSLSLEGQPYVLANSCKPHDCGNNRLLVAFRGDKSAAYGLQVSLPDEPAEVMQTPSKYATYRWYGEPSRQVRELLMKQLESDPNWKLEHHHHHH”, the “soluble on expression in E. coli” value is on record as “soluble”. In the case of “GPGSMNVCSNTTKDPLTLMAMWGSMKGYNPEQGFSFEGPEKRLEVILRSTLETHVDGLRSLDDSVWSGVVGSLNAQIVSRESNEYINSYVLTESSLFVMKNRIILITCGTTTLLNSIPNILEAISAVRGELEWVSFMHKNYSFPWMQKGPHTSLADEFATLKQHFPTGKPYIFGPVDSDHYFLFCYDDIIRPCSSEDDTQLSMTMYGLDKEQTKYWFRDRFISTSAETAAIRAATHLDRVVDGTWTLHDLQFEPCGYSINAIRDEEYQTMHITPEDHCSFASYETNSRATNYSDRMKKVLGVFRPQRFTVIVFLDPESPVGKAYNEGKGIGVEPEYYPEYSLLHRTTNEFAPGYVAMKINYVRTAAVEETDAAVGGAEPGAKSGPD” it was “not soluble”; in that of “MGSDKIHHHHHHMQRIMVIGGPGSGKSTLGRKLGARLGLPVVHMDPIYWLGDWVERDKAEAMRMAKEVADGSQWVFEGNHFASMAYRAERADLIVFLDMPRVLRMWRILWRSLRYYGRTRPDMGPNCPERFNRAFLKFCWTYDREGRLRALGFVDDWRDRRRVRILTSRRQVAAFLVEIDRQ”, “not soluble”.

(Values after the DeepSol protein solubility set.)
